{
  "source": "paper PMC5986104",
  "target": "NOTCH2-Myc (human) (UniProt Q04721)",
  "sequence (Q04721 26-2471)": "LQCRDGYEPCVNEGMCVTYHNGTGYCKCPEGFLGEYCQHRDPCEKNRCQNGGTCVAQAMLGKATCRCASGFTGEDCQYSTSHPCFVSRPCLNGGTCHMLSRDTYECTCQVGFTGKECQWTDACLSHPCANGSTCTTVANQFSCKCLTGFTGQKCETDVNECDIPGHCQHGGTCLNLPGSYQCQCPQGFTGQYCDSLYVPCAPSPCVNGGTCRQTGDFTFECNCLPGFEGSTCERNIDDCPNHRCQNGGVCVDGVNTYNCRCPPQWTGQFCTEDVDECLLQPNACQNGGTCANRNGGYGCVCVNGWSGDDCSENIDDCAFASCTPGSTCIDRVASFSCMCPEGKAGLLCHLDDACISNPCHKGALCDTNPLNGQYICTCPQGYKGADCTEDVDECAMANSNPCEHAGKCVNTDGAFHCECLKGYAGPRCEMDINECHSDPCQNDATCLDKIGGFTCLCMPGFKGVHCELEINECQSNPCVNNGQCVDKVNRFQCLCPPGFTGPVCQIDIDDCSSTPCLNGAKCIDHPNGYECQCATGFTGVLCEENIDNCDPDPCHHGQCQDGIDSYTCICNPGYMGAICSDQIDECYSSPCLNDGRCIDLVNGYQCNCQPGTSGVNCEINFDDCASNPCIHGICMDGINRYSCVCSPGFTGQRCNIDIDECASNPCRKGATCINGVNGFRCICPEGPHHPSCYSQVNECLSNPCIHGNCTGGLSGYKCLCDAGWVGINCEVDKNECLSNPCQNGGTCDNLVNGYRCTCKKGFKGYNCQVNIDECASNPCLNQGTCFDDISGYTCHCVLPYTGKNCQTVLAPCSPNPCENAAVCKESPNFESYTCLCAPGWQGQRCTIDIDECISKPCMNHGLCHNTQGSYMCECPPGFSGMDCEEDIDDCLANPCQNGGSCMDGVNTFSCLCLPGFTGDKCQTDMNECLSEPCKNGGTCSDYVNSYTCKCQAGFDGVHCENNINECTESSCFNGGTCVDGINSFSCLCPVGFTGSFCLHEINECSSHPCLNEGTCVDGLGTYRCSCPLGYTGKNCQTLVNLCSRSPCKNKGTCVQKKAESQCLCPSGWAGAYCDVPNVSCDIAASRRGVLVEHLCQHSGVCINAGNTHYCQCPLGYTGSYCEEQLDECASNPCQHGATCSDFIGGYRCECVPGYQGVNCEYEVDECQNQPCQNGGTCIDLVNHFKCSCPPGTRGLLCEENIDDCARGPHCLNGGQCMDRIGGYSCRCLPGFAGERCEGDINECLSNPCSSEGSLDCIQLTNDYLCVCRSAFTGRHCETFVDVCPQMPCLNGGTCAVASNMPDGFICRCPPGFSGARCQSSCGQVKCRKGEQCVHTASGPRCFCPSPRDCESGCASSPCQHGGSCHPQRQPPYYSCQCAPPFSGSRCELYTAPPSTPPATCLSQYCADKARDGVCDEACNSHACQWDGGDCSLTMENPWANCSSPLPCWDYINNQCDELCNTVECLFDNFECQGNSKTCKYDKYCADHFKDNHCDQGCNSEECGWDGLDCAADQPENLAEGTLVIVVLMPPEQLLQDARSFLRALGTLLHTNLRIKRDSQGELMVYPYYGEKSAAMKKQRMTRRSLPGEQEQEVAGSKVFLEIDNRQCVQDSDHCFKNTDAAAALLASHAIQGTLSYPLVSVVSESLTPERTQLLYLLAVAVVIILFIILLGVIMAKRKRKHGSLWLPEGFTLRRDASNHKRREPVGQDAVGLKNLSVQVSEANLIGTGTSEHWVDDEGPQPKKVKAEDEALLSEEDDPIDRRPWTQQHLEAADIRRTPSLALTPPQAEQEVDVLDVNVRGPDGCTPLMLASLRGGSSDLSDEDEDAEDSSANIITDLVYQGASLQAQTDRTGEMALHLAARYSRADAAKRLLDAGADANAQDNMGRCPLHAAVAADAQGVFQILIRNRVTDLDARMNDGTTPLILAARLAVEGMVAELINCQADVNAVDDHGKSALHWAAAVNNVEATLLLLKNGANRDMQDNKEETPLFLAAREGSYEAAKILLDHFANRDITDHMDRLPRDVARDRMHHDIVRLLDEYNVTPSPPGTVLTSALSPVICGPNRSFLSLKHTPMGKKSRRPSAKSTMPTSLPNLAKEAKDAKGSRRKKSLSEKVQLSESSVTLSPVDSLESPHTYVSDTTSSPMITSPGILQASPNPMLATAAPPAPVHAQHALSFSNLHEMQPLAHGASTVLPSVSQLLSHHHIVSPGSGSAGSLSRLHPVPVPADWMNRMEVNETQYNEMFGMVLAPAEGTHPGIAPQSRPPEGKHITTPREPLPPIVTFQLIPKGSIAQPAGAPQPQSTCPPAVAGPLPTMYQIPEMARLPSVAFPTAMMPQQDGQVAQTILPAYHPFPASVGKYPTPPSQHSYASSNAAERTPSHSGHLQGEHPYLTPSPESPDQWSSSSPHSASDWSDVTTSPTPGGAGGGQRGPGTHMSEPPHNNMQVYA",
  "data": [
    {"substance": "NOTCH2NL-HA^L,T197I (from UniProt P0DPK3 26-275) (natural protein)", "values": [
      {"measurement": "NOTCH2-GAL4 reporter activation under baseline conditions, increase (Figure 6J)", "result": 63, "unit": "%"}
    ]},
    {"substance": "NOTCH2NL^L (from UniProt P0DPK3 26-275) (natural protein)", "values": [
      {"measurement": "NOTCH2-GAL4 reporter activation under baseline conditions, increase (Figure 6J)", "result": 21, "unit": "%"}
    ]},
    {"substance": "NOTCH2NL^Sh,T197I (natural protein)", "values": [
      {"measurement": "NOTCH2-GAL4 reporter activation under baseline conditions, increase (Figure 6H)", "result": 31, "unit": "%"},
      {"measurement": "NOTCH2-GAL4 reporter activation with JAG2 co-culture, increase (Figure 6I)", "result": 53, "unit": "%"}
    ]}
  ]
}
